Test results taken from article PMC9482650, “Quantitative fragmentomics allow affinity mapping of interactomes” (Nature Communications, 2022).

Key:
Test in all cases: holdup assay
Parameters in all cases: key: below the threshold = too weak to quantify, mostly under pKd 3.1 to 4
GRIP1_4, Q9Y3R0 = biological target: T1, GRIP1_4, Q9Y3R0
T1 sequence (Q9Y3R0 467-571, limits assumed, looked up): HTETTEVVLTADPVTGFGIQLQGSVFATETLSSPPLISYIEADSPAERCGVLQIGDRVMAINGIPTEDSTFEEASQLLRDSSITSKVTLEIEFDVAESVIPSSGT

GRIP2_3, Q9C0E4 = biological target: GRIP2_3, Q9C0E4
Sequence of GRIP2_3, Q9C0E4 (Q9C0E4 238-339): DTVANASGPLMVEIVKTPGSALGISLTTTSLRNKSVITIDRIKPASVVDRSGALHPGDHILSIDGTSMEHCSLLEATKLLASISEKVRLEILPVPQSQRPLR

DLG5_1, Q8TDM6 = biological target: DLG5_1, Q8TDM6
Sequence of DLG5_1, Q8TDM6 (Q8TDM6 617-713): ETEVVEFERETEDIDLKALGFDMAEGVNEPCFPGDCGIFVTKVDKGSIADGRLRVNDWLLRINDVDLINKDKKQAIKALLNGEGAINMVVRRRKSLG

SNTB1, Q13884 = biological target: T2, SNTB1, Q13884
T2 sequence (Q13884 107-205, limits assumed, looked up): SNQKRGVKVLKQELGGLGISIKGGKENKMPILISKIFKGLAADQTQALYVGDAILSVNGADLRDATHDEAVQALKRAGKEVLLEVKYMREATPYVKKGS

GRIP2_7, Q9C0E4 = biological target: GRIP2_7, Q9C0E4
Sequence of GRIP2_7, Q9C0E4 (Q9C0E4 934-1023): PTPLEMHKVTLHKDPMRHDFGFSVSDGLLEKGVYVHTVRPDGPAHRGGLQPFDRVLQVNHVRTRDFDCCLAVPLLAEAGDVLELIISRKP

FRMPD2_3, Q68DX3 = biological target: FRMPD2_3, Q68DX3
Sequence of FRMPD2_3, Q68DX3 (Q68DX3 1073-1166): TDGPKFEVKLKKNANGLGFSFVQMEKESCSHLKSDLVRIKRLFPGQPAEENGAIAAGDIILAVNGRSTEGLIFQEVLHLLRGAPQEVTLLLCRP

GORASP1, Q9BQQ3 = biological target: GORASP1, Q9BQQ3
Sequence of GORASP1, Q9BQQ3 (Q9BQQ3 1-208): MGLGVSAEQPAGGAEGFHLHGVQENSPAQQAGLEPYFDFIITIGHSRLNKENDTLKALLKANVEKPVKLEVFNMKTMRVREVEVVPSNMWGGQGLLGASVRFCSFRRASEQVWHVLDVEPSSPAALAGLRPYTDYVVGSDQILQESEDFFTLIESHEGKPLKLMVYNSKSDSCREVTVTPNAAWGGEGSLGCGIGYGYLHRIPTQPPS

Inadl_9, Q8NI35 = biological target: Inadl_9, Q8NI35
Sequence of Inadl_9, Q8NI35 (Q8NI35 1530-1615): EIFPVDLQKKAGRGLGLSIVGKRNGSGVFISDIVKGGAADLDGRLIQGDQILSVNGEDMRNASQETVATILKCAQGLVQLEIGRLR

MPP6, Q9NZW5 = biological target: T3, MPP6, Q9NZW5
T3 sequence (Q9NZW5 125-219, limits assumed, looked up): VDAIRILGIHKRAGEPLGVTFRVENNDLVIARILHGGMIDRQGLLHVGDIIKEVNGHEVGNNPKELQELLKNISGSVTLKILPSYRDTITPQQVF

MAGI2_6, Q86UL8 = biological target: MAGI2_6, Q86UL8
Sequence of MAGI2_6, Q86UL8 (Q86UL8 1141-1229): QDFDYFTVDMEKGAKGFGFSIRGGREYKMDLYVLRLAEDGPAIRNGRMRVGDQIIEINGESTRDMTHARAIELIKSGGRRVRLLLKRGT

PDZRN3_1, Q9UPQ7 = biological target: T4, PDZRN3_1, Q9UPQ7
T4 sequence (Q9UPQ7 244-349, limits assumed, looked up): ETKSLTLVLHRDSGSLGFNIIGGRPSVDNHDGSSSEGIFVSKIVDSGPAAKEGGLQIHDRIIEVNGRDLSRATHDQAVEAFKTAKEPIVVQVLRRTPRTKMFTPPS

GRIP2_5, Q9C0E4 = biological target: GRIP2_5, Q9C0E4
Sequence of GRIP2_5, Q9C0E4 (Q9C0E4 544-642): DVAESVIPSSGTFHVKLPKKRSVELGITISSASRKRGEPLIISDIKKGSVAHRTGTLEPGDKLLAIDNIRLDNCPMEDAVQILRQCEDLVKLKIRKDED

TJP2_1, Q9UDY2 = biological target: TJP2_1, Q9UDY2
Sequence of TJP2_1, Q9UDY2 (Q9UDY2 24-128): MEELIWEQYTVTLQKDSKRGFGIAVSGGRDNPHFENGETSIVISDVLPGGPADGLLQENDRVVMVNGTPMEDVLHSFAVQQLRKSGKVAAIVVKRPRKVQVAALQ

LNX2_2, Q8N448 = biological target: T5, LNX2_2, Q8N448
T5 sequence (Q8N448 334-432, limits assumed, looked up): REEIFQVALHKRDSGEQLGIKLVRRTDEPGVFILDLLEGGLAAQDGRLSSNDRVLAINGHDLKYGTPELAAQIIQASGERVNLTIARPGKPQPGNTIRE

ARHGEF12, Q9NZN5-2 = biological target: ARHGEF12, Q9NZN5-2
Sequence of ARHGEF12, Q9NZN5-2 (Q9NZN5 other isoform, or with tags, fused parts or gaps): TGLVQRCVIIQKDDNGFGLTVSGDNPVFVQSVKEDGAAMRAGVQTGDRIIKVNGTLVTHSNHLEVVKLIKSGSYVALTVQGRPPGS

LIN7C, Q9NUP9 = biological target: T6, LIN7C, Q9NUP9
T6 sequence (Q9NUP9 88-185, limits assumed, looked up): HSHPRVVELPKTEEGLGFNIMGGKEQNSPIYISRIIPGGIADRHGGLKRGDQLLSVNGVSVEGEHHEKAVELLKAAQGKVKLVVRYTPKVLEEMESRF

DLG4_2, P78352 = biological target: DLG4_2, P78352
Sequence of DLG4_2, P78352 (P78352 155-259): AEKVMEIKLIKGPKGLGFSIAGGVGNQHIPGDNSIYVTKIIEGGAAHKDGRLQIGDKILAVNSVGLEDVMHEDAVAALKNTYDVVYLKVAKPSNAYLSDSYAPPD

TJP1_2, Q07157 = biological target: TJP1_2, Q07157
Sequence of TJP1_2, Q07157 (Q07157 181-274): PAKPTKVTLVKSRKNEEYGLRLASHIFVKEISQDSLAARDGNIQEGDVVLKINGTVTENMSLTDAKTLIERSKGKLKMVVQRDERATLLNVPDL

Inadl_5, Q8NI35 = biological target: Inadl_5, Q8NI35
Sequence of Inadl_5, Q8NI35 (Q8NI35 673-780): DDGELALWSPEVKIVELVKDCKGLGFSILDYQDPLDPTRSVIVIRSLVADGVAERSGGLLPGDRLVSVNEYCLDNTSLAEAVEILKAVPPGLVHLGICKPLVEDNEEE

NHERF3_4, Q5T2W1 = biological target: T7, NHERF3_4, Q5T2W1
T7 sequence (Q5T2W1 373-468, limits assumed, looked up): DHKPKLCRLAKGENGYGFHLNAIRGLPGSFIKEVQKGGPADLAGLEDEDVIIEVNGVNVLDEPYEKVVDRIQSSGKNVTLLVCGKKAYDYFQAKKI

GIPC2, Q8TF65 = biological target: GIPC2, Q8TF65
Sequence of GIPC2, Q8TF65 (Q8TF65 112-203): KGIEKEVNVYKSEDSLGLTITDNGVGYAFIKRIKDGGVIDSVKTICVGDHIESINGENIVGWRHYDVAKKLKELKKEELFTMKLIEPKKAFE

DLG1_3, Q12959 = biological target: DLG1_3, Q12959
Sequence of DLG1_3, Q12959 (Q12959 457-571): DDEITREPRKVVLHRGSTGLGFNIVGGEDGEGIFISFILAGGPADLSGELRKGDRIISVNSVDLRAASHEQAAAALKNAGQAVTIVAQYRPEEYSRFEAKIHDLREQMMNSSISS

HTRA1, Q92743 = biological target: HTRA1, Q92743
Sequence of HTRA1, Q92743 (Q92743 360-477): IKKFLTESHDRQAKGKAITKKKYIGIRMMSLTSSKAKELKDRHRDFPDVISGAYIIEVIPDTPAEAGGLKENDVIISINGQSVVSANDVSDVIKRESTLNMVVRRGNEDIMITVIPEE

LNX1_1, Q8TBB1 = biological target: LNX1_1, Q8TBB1
Sequence of LNX1_1, Q8TBB1 (Q8TBB1 261-371): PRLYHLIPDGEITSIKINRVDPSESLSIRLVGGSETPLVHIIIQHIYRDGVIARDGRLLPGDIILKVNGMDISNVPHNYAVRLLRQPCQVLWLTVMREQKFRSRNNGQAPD

SNTA1, Q13424 = biological target: T8, SNTA1, Q13424
T8 sequence (Q13424 82-180, limits assumed, looked up): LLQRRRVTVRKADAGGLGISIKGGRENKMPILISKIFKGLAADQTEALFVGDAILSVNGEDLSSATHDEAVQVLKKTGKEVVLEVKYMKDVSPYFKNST

LNX2_3, Q8N448 = biological target: T9, LNX2_3, Q8N448
T9 sequence (Q8N448 463-564, limits assumed, looked up): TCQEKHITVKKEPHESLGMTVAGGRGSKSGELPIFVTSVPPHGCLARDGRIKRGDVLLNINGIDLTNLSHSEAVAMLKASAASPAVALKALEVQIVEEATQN

APBA2_2, Q99767 = biological target: T10, APBA2_2, Q99767
T10 sequence (Q99767 654-744, limits assumed, looked up): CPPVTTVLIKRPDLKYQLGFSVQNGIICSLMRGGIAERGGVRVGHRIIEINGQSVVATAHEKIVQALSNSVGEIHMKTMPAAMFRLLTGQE

[1] = plain residues with an end cap or a label only (N-terminal biotin on a linker: ttds)
[2] = plain residues with an end cap or a label only (N-terminal biotin on a linker: gsgsgs; C-terminal amide)
[3] = plain residues with an end cap or a label only (N-terminal biotin on a linker: ahx)

## IYVPEAQTRL [DLGAP4, Q9Y2H0]
GRIP1_4, Q9Y3R0; [1]
  pKd: below the threshold
GRIP2_3, Q9C0E4; [1]
  pKd: below the threshold
DLG5_1, Q8TDM6; [1]
  pKd: below the threshold
SNTB1, Q13884; [1]
  pKd: 4.2
GRIP2_7, Q9C0E4; [1]
  pKd: below the threshold
FRMPD2_3, Q68DX3; [1]
  pKd: below the threshold
GORASP1, Q9BQQ3; [1]
  pKd: below the threshold
Inadl_9, Q8NI35; [1]
  pKd: below the threshold
MPP6, Q9NZW5; [1]
  pKd: below the threshold
MAGI2_6, Q86UL8; [1]
  pKd: below the threshold
PDZRN3_1, Q9UPQ7; [1]
  pKd: 3.94
GRIP2_5, Q9C0E4; [1]
  pKd: below the threshold
TJP2_1, Q9UDY2; [1]
  pKd: below the threshold
LNX2_2, Q8N448; [1]
  pKd: below the threshold
ARHGEF12, Q9NZN5-2; [1]
  pKd: 4.1
LIN7C, Q9NUP9; [1]
  pKd: below the threshold
DLG4_2, P78352; [1]
  pKd: below the threshold
TJP1_2, Q07157; [1]
  pKd: below the threshold
Inadl_5, Q8NI35; [1]
  pKd: below the threshold
NHERF3_4, Q5T2W1; [1]
  pKd: 3.87
GIPC2, Q8TF65; [1]
  pKd: below the threshold
DLG1_3, Q12959; [1]
  pKd: below the threshold
HTRA1, Q92743; [1]
  pKd: 3.63
LNX1_1, Q8TBB1; [1]
  pKd: below the threshold
SNTA1, Q13424; [1]
  pKd: 3.98
LNX2_3, Q8N448; [1]
  pKd: below the threshold
APBA2_2, Q99767; [1]
  pKd: below the threshold

## ERKLSSESQV [LRP4, O75096]
GRIP1_4, Q9Y3R0; [1]
  pKd: below the threshold
GRIP2_3, Q9C0E4; [1]
  pKd: below the threshold
DLG5_1, Q8TDM6; [1]
  pKd: below the threshold
SNTB1, Q13884; [1]
  pKd: 4.05
GRIP2_7, Q9C0E4; [1]
  pKd: below the threshold
FRMPD2_3, Q68DX3; [1]
  pKd: below the threshold
GORASP1, Q9BQQ3; [1]
  pKd: below the threshold
Inadl_9, Q8NI35; [1]
  pKd: below the threshold
MPP6, Q9NZW5; [1]
  pKd: below the threshold
MAGI2_6, Q86UL8; [1]
  pKd: 3.51
PDZRN3_1, Q9UPQ7; [1]
  pKd: below the threshold
GRIP2_5, Q9C0E4; [1]
  pKd: below the threshold
TJP2_1, Q9UDY2; [1]
  pKd: below the threshold
LNX2_2, Q8N448; [1]
  pKd: below the threshold
ARHGEF12, Q9NZN5-2; [1]
  pKd: 3.7
LIN7C, Q9NUP9; [1]
  pKd: below the threshold
DLG4_2, P78352; [1]
  pKd: 4.69
TJP1_2, Q07157; [1]
  pKd: below the threshold
Inadl_5, Q8NI35; [1]
  pKd: below the threshold
NHERF3_4, Q5T2W1; [1]
  pKd: below the threshold
GIPC2, Q8TF65; [1]
  pKd: 4.22
DLG1_3, Q12959; [1]
  pKd: below the threshold
HTRA1, Q92743; [1]
  pKd: below the threshold
LNX1_1, Q8TBB1; [1]
  pKd: below the threshold
SNTA1, Q13424; [1]
  pKd: 3.78
LNX2_3, Q8N448; [1]
  pKd: below the threshold
APBA2_2, Q99767; [1]
  pKd: below the threshold

## TLSLTDSSVDGIPPYR [AXIN1_int, O15169]
GRIP1_4, Q9Y3R0; [2]
  pKd: below the threshold
GRIP2_3, Q9C0E4; [2]
  pKd: below the threshold
DLG5_1, Q8TDM6; [2]
  pKd: below the threshold
SNTB1, Q13884; [2]
  pKd: below the threshold
GRIP2_7, Q9C0E4; [2]
  pKd: below the threshold
FRMPD2_3, Q68DX3; [2]
  pKd: below the threshold
GORASP1, Q9BQQ3; [2]
  pKd: below the threshold
Inadl_9, Q8NI35; [2]
  pKd: below the threshold
MPP6, Q9NZW5; [2]
  pKd: 3.93
MAGI2_6, Q86UL8; [2]
  pKd: below the threshold
PDZRN3_1, Q9UPQ7; [2]
  pKd: below the threshold
GRIP2_5, Q9C0E4; [2]
  pKd: below the threshold
TJP2_1, Q9UDY2; [2]
  pKd: below the threshold
LNX2_2, Q8N448; [2]
  pKd: below the threshold
ARHGEF12, Q9NZN5-2; [2]
  pKd: below the threshold
LIN7C, Q9NUP9; [2]
  pKd: 3.97
DLG4_2, P78352; [2]
  pKd: below the threshold
TJP1_2, Q07157; [2]
  pKd: below the threshold
Inadl_5, Q8NI35; [2]
  pKd: below the threshold
NHERF3_4, Q5T2W1; [2]
  pKd: below the threshold
GIPC2, Q8TF65; [2]
  pKd: below the threshold
DLG1_3, Q12959; [2]
  pKd: below the threshold
HTRA1, Q92743; [2]
  pKd: below the threshold
LNX1_1, Q8TBB1; [2]
  pKd: below the threshold
SNTA1, Q13424; [2]
  pKd: below the threshold
LNX2_3, Q8N448; [2]
  pKd: below the threshold
APBA2_2, Q99767; [2]
  pKd: below the threshold

## HTHSYIETHV [CNKSR2, Q8WXI2]
GRIP1_4, Q9Y3R0; [3]
  pKd: below the threshold
GRIP2_3, Q9C0E4; [3]
  pKd: below the threshold
DLG5_1, Q8TDM6; [3]
  pKd: below the threshold
SNTB1, Q13884; [3]
  pKd: 4.6
GRIP2_7, Q9C0E4; [3]
  pKd: below the threshold
FRMPD2_3, Q68DX3; [3]
  pKd: 3.87
GORASP1, Q9BQQ3; [3]
  pKd: below the threshold
Inadl_9, Q8NI35; [3]
  pKd: 3.64
MPP6, Q9NZW5; [3]
  pKd: below the threshold
MAGI2_6, Q86UL8; [3]
  pKd: 4.41
PDZRN3_1, Q9UPQ7; [3]
  pKd: 3.8
GRIP2_5, Q9C0E4; [3]
  pKd: below the threshold
TJP2_1, Q9UDY2; [3]
  pKd: 4.46
LNX2_2, Q8N448; [3]
  pKd: 3.99
ARHGEF12, Q9NZN5-2; [3]
  pKd: 3.88
LIN7C, Q9NUP9; [3]
  pKd: 3.67
DLG4_2, P78352; [3]
  pKd: 4.98
TJP1_2, Q07157; [3]
  pKd: below the threshold
Inadl_5, Q8NI35; [3]
  pKd: below the threshold
NHERF3_4, Q5T2W1; [3]
  pKd: below the threshold
GIPC2, Q8TF65; [3]
  pKd: below the threshold
DLG1_3, Q12959; [3]
  pKd: 3.85
HTRA1, Q92743; [3]
  pKd: 3.84
LNX1_1, Q8TBB1; [3]
  pKd: 3.85
SNTA1, Q13424; [3]
  pKd: 4.93
LNX2_3, Q8N448; [3]
  pKd: below the threshold
APBA2_2, Q99767; [3]
  pKd: below the threshold
